Data published in patent US20180142032A1 (Sanofi, published 2018).
Residue numbers refer to the chain shown, from its start. Values joined by “and” are separate entries in the source; they are usually repeats but may differ in a detail not shown here. Equal entries are not always repeated.

T1: human LAMP1 at the cell surface (human, UniProt P11279 29-417)
T1 sequence: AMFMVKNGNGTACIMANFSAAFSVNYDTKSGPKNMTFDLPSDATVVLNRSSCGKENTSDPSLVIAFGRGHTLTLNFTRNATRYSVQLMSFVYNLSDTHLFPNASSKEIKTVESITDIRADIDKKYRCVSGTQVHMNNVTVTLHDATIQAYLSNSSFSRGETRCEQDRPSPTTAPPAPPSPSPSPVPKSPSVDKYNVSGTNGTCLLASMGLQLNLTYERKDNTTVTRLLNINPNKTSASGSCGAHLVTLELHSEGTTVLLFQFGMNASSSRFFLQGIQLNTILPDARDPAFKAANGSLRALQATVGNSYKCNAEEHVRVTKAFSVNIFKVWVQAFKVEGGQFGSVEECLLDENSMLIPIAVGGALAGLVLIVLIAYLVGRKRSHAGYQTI

T2: cLAMP1::histag (cynomolgus monkey, UniProt P11279 29-380 (human entry))
T2 construct: extracellular domain with C-terminal tag that includes 6 His; also called cynomolgus LAMP1 (27-380); cynomolgus monkey LAMP1 protein
T2 chain: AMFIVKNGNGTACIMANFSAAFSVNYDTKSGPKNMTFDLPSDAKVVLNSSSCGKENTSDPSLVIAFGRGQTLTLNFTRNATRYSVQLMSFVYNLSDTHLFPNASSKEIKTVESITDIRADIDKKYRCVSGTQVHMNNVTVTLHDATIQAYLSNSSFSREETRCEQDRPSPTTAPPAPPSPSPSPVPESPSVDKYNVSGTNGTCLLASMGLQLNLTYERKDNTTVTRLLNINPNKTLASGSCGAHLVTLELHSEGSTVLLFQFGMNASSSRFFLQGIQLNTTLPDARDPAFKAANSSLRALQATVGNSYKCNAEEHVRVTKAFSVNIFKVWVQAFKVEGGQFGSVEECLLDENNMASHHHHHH

T3: cynomolgus monkey LAMP1 at the cell surface (cynomolgus monkey, UniProt P11279 29-417 (human entry))
T3 construct: also called cynoLAMP1; cynomolgus LAMP1
T3 chain: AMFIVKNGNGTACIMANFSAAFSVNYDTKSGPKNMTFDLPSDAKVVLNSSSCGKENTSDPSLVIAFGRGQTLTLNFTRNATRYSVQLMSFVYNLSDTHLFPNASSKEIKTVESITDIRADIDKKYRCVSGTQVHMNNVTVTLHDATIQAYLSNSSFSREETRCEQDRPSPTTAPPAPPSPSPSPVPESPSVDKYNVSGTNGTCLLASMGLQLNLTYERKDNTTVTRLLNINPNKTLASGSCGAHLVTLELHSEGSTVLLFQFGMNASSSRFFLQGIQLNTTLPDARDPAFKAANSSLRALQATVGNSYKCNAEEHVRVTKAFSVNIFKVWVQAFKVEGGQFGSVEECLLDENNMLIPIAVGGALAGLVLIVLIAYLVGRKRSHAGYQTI

T4: hLAMP1_ΔGYQTI (human, UniProt P11279 29-412)
T4 construct: also called pXL5626
T4 sequence: T1 sequence with G385A, Y386A, Q387A, T388A, I389A

T5: LAMP1::histag (human, UniProt P11279 29-382)
T5 construct: extracellular domain without signal peptide, C-terminal 6 His tag, made in HEK293 cells; also called recombinant human LAMP1; human LAMP1 (29-382)
T5 sequence: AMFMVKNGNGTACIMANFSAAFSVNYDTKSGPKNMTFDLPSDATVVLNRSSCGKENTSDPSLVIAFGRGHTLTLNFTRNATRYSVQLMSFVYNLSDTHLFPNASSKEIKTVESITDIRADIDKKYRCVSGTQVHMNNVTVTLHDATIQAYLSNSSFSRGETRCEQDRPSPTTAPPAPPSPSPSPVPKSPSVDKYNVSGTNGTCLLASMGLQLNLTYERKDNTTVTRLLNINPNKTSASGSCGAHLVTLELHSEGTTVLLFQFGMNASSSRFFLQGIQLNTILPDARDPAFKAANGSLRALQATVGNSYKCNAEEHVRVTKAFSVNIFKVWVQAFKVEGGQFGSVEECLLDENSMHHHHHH

B1: huMAb1_1 (antibody, human IgG1, kappa)
heavy: not shown
light: DIQMTQSPSSLSASVGDRVTITCKASQDIDRYMAWYQDKPGKAPRLLIHDTSTLQSGVPSRFSGSGSGRDYTLTISNLEPEDFATYYCLQYDNLWTFGGGTKVEIKRTVAAPSVFIFPPSDEQLKSGTASVVCLLNNFYPREAKVQWKVDNALQSGNSQESVTEQDSKDSTYSLSSTLTLSKADYEKHKVYACEVTHQGLSSPVTKSFNRGEC
notes: humanized, VH1-huIgG1 and VL1-huCk
B2: MAb1 (antibody, mouse IgG2a, kappa)
heavy: QVQLQQSGAELVKPGASVKMSCKASGYIFTNYNIHWVKKSPGQGLEWIGAIYPGNGDAPYSQKFKDKATLTADKSSSTTYMQLSRLTSEDSAVYYCVRANWDVAFAYWGQGTLVSVSAAKTTAPSVYPLAPVCGDTTGSSVTLGCLVKGYFPEPVTLTWNSGSLSSGVHTFPAVLQSDLYTLSSSVTVTSSTWPSQSITCNVAHPASSTKVDKKIEPRGPTIKPCPPCKCPAPNLLGGPSVFIFPPKIKDVLMISLSPIVTCVVVDVSEDDPDVQISWFVNNVEVHTAQTQTHREDYNSTLRVVSALPIQHQDWMSGKEFKCKVNNKDLPAPIERTISKPKGSVRAPQVYVLPPPEEEMTKKQVTLTCMVTDFMPEDIYVEWTNNGKTELNYKNTEPVLDSDGSYFMYSKLRVEKKNWVERNSYSCSVVHEGLHNHHTTKSFSRTPGK
light: DIQMTQSPPSLSASLGGKVTITCKASQDIDRYMAWYQDKPGKGPRLLIHDTSTLQPGIPSRFSGSGSGRDYSFSISNLEPEDIATYYCLQYDNLWTFGGGTKLEIKRADAAPTVSIFPPSSEQLTSGGASVVCFLNNFYPKDINVKWKIDGSERQNGVLNSWTDQDSKDSTYSMSSTLTLTKDEYERHNSYTCEATHKTSTSPIVKSFNRNEC
notes: murine monoclonal IgG, kappa, from hybridoma; also called murine MAb1

Assays:
[1] = target: T1, human LAMP1 at the cell surface; assay: cell-based or functional assay
cLAMP1::histag = target: T2, cLAMP1::histag; assay: ELISA on coated recombinant LAMP1 extracellular domain, detected with anti-mouse IgG-HRP; antibody concentration not given
Excerpt: The antibody binding was visualized by adding TMB-H₂O₂ buffer and read at a wavelength of 450 nm.

[2] = target: T3, cynomolgus monkey LAMP1 at the cell …; assay: flow cytometry, HCT116 stable clones; cynomolgus LAMP1 on recombinant HCT116 stable clones
Experimental: HCT116 cells were infected by a lentiviral vector allowing stable integration of the human or the cynomolgus LAMP1 CDS in genomic DNA of cells. Individual clones with different densities of human or cynomolgus LAMP1 cell surface localization were derived from a pool of HCT116 infected cells. […] 100 μL/well of goat anti-human IgG conjugated with Alexa488 (Invitrogen; # A11013) was added for 1 h at 4° C. and washed two times with PBS 1% BSA. The antibody binding was evaluated after centrifugation and resuspension of cells in 100 μl fixing solution (paraformaldehyde at 4% in PBS). Samples were read using Galaxy® Flow Cytometry System (Partec). EC50 values were estimated using BIOST@T-SPEED software.

hLAMP1_ΔGYQTI = target: T4, hLAMP1_ΔGYQTI; assay: flow cytometry, transfected 293-F cells, experiment 1
LAMP1::histag = target: T5, LAMP1::histag; assay: ELISA on secreted LAMP1::histag

Binder | ADCP EC50, 3/1, batch 67130713495 [1] | ADCP EC50, 3/1, batch 67131354967 [1] [nM] | ADCP EC50, 3/1, batch 67131617470 [1] [nM] | ADCP EC50, 6/1, batch 67130713495 [1] | ADCP EC50, macrophages/target 3/1, batch 67131617438 [1] [nM] | binding result (cLAMP1::histag) | EC50 [2] [nM] | mean fluorescence (hLAMP1_ΔGYQTI) | EC50 (LAMP1::histag) [nM]
B1 | 0.47 nM and 0.36 nM | 0.5 | 0.56 | 0.98 nM and 0.34 nM | 0.28 |  |  |  | 
B2 |  |  |  |  |  | binds | 5.5 | 1750 | 0.16
